How the values were obtained:
[1] = target: T1, His-Ub (UniProt P0CG48 1-76); assay: pull-down; interaction assay with His-Ub and GST-CstF-50 as described previously (ref. 5); pellets and supernatants analysed by immunoblotting under denaturing PAGE; conditions: both partners purified
T1 construct: ubiquitin (Ub), the cut product of its precursor; also called ubiquitin; source: E. coli BL21, purified (Ni-agarose)

[2] = target: T2, ΔBRCA1/BARD1-wt heterodimeric complex (truncated BRCA1 residues 1 to 304 and full-length BARD1) (UniProt P38398 1-304; Q99728 1-777); assay: pull-down; ΔBRCA1/BARD1 (wt or Q564H) incubated with GST-CstF-50 and/or His-p97, immunoprecipitated with anti-BARD1 or preimmune sera; washes with buffer A (PBS, 0.01% Nonidet P-40, 0.04% BSA) including 300 mM NaCl; Western blot; conditions: both partners purified
T2 construct: truncated BRCA1 spanning the RING domain, residues 1 to 304; full-length BARD1, wild type; also called BRCA1/BARD1 heterodimer
T2 sequence (P38398 1-304, stated change not applied, chain 1 of 2): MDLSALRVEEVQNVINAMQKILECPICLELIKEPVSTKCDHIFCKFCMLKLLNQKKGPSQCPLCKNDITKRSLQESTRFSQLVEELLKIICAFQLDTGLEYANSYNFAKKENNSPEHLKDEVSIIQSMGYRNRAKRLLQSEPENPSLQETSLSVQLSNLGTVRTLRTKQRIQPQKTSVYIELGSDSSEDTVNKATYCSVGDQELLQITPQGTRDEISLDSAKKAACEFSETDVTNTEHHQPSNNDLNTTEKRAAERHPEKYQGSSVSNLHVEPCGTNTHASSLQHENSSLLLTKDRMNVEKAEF
T2 sequence (Q99728 whole entry, stated change not applied, chain 2 of 2, the tested form may be a part): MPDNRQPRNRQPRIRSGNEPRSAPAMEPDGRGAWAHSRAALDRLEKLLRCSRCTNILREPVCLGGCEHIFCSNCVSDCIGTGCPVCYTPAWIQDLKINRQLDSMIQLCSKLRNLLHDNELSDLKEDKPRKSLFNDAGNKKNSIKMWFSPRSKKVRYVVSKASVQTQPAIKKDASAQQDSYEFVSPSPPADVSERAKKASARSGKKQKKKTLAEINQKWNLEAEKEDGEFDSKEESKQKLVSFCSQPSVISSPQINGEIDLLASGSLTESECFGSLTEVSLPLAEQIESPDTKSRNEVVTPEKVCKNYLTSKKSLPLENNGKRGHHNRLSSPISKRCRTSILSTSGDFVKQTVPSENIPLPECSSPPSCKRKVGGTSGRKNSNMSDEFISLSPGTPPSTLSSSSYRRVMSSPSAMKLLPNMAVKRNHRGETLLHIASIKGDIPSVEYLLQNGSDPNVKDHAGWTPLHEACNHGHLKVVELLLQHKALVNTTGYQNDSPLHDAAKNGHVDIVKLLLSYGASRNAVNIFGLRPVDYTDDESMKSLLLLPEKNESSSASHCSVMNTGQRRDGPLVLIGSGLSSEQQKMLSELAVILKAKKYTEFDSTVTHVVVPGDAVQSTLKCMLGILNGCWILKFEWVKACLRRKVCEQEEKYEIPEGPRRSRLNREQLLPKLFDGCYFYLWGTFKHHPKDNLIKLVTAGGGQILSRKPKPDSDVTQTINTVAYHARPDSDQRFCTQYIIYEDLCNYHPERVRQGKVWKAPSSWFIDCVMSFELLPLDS

B1: GST-CstF-50 (natural protein, UniProt Q05048 1-431, looked up)
chain: MYRTKVGLKDRQQLYKLIISQLLYDGYISIANGLINEIKPQSVCAPSEQLLHLIKLGMENDDTAVQYAIGRSDTVAPGTGIDLEFDADVQTMSPEASEYETCYVTSHKGPCRVATYSRDGQLIATGSADASIKILDTERMLAKSAMPIEVMMNETAQQNMENHPVIRTLYDHVDEVTCLAFHPTEQILASGSRDYTLKLFDYSKPSAKRAFKYIQEAEMLRSISFHPSGDFILVGTQHPTLRLYDINTFQCFVSCNPQDQHTDAICSVNYNSSANMYVTGSKDGCIKLWDGVSNRCITTFEKAHDGAEVCSAIFSKNSKYILSSGKDSVAKLWEISTGRTLVRYTGAGLSGRQVHRTQAVFNHTEDYVLLPDERTISLCCWDSRTAERRNLLSLGHNNIVRCIVHSPTNPGFMTCSDDFRARFWYRRSTTD
notes: CstF-50 (cleavage stimulation factor 50), recombinant; also called glutathione S-transferase (GST)-CstF-50; source: E. coli BL21, purified (glutathione-agarose)
- binding result [1]: binds
- binding result [2]: binds
